Legend:
[1] = biological target: recombinant UBE3A protein (Homo sapiens (Human)) (UniProt Q05086); assay: Simoa; capture GTX; 3E5 0.4 ug/ml; UBE3A 0.800 ng/ml
[2] = biological target: recombinant UBE3A protein (Homo sapiens (Human)) (UniProt Q05086); assay: Simoa; capture GTX; 3E5 0.1 ug/ml; UBE3A 0.00128 ng/ml
[3] = biological target: recombinant UBE3A protein (Homo sapiens (Human)) (UniProt Q05086); assay: Simoa; capture GTX; 3E5 0.4 ug/ml; UBE3A 0.00640 ng/ml
[4] = biological target: recombinant UBE3A protein (Homo sapiens (Human)) (UniProt Q05086); assay: Simoa; capture GTX; 3E5 0.8 ug/ml; UBE3A 0.00128 ng/ml
[5] = biological target: recombinant UBE3A protein (Homo sapiens (Human)) (UniProt Q05086); assay: Simoa head-to-head, Table 10; capture GTX; UBE3A 100 ng/ml
[6] = biological target: recombinant UBE3A protein (Homo sapiens (Human)) (UniProt Q05086); assay: Simoa head-to-head, Table 10; capture GTX; UBE3A 500 ng/ml
[7] = biological target: recombinant UBE3A protein (Homo sapiens (Human)) (UniProt Q05086); assay: Simoa head-to-head, Table 10; capture GTX; UBE3A 0.16 ng/ml
[8] = biological target: recombinant UBE3A protein (Homo sapiens (Human)) (UniProt Q05086); assay: Simoa head-to-head, Table 10; capture GTX; UBE3A 0.80 ng/ml
[9] = biological target: recombinant UBE3A protein (Homo sapiens (Human)) (UniProt Q05086); assay: Simoa head-to-head, Table 10; capture GTX; UBE3A 20.0 ng/ml
[10] = biological target: recombinant UBE3A protein (Homo sapiens (Human)) (UniProt Q05086); assay: Simoa head-to-head, Table 10; capture GTX; UBE3A 4.00 ng/ml
[11] = biological target: recombinant UBE3A protein (Homo sapiens (Human)) (UniProt Q05086); assay: Simoa head-to-head, Table 10; capture GTX; UBE3A 0.032 ng/ml
[12] = biological target: recombinant UBE3A protein (Homo sapiens (Human)) (UniProt Q05086); assay: Simoa; capture GTX + helper beads; 3E5 0.2 ug/ml; UBE3A 0.00128 ng/ml
[13] = biological target: recombinant UBE3A protein (Homo sapiens (Human)) (UniProt Q05086); assay: 2-step Simoa; capture GTX; UBE3A 0.1 ng/ml
[14] = biological target: recombinant UBE3A protein (Homo sapiens (Human)) (UniProt Q05086); assay: 3-step Simoa; capture MS 3E5; UBE3A 1 ng/ml
[15] = biological target: recombinant UBE3A protein (Homo sapiens (Human)) (UniProt Q05086); assay: 3-step Simoa; capture MS 3E5; UBE3A 10 ng/ml
[16] = biological target: recombinant UBE3A protein (Homo sapiens (Human)) (UniProt Q05086); assay: 2-step Simoa; capture MS 3E5; UBE3A 10 ng/ml
[17] = biological target: recombinant UBE3A protein (Homo sapiens (Human)) (UniProt Q05086); assay: 3-step Simoa; capture MS 3E5; UBE3A 0.1 ng/ml
[18] = biological target: recombinant UBE3A protein (Homo sapiens (Human)) (UniProt Q05086); assay: 2-step Simoa; capture MS 3E5; UBE3A 0.1 ng/ml
[19] = biological target: recombinant UBE3A protein (Homo sapiens (Human)) (UniProt Q05086); assay: 3-step Simoa; capture MS 2F6; UBE3A 0.01 ng/ml
[20] = biological target: recombinant UBE3A protein (Homo sapiens (Human)) (UniProt Q05086); assay: 3-step Simoa; capture MS 3E5; UBE3A 0.01 ng/ml
[21] = biological target: recombinant UBE3A protein (Homo sapiens (Human)) (UniProt Q05086); assay: 2-step Simoa; capture MS 3E5; UBE3A 0.01 ng/ml

Sequence of UniProt Q05086 (Q05086 whole entry): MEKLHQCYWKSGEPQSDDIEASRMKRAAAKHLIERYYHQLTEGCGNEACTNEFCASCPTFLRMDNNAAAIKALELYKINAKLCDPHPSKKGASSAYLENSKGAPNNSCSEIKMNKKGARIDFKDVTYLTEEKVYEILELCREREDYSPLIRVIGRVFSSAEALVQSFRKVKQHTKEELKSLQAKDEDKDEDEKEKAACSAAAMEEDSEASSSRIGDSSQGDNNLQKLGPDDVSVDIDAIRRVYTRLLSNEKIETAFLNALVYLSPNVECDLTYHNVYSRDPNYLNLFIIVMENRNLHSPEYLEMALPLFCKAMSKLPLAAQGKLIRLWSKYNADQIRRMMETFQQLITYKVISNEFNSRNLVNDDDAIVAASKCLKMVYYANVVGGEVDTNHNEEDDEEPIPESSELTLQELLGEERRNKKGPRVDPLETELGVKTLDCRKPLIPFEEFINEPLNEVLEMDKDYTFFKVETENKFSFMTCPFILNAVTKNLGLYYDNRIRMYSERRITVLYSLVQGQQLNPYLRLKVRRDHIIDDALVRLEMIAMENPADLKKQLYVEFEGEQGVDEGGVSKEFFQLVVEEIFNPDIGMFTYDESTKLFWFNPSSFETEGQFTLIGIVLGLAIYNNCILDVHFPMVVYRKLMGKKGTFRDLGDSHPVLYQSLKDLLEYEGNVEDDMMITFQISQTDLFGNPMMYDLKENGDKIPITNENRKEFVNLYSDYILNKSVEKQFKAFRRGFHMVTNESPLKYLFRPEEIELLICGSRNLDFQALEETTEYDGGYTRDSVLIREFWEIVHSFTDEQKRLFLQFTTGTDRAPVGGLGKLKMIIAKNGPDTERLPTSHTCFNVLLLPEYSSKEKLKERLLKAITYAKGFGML

Substance: anti-UBE3A antibody 3E5 (SAB1404508-100 ug, Millipore-Sigma)
- AEB1 [1]: 0.509
- AEB2 [1]: 0.48
- AEB3 [1]: 0.478
- Average AEB [1]: 0.489
- Signal to Background [1]: 7.81
- AEB1 [2]: 0.0242
- AEB2 [2]: 0.0239
- AEB3 [2]: 0.0247
- Average AEB [2]: 0.0243
- Signal to Background [2]: 1.26
- AEB1 [3]: 0.0671
- AEB2 [3]: 0.0638
- AEB3 [3]: 0.0865
- Average AEB [3]: 0.0725
- Signal to Background [3]: 1.16
- AEB1 [4]: 0.109
- AEB2 [4]: 0.109
- AEB3 [4]: 0.112
- Average AEB [4]: 0.11
- Signal to Background [4]: 0.897
- AEB1 [5]: 4.3
- AEB2 [5]: 4.08
- Ave AEB [5]: 4.19
- Signal to Background [5]: 184
- AEB1 [6]: 12.3
- AEB2 [6]: 11.6
- Ave AEB [6]: 11.9
- Signal to Background [6]: 526
- AEB1 [7]: 0.0558
- AEB2 [7]: 0.0571
- Ave AEB [7]: 0.0564
- Signal to Background [7]: 2.48
- AEB1 [8]: 0.144
- AEB2 [8]: 0.14
- Ave AEB [8]: 0.142
- Signal to Background [8]: 6.24
- AEB1 [9]: 2.26
- AEB2 [9]: 2.45
- Ave AEB [9]: 2.35
- Signal to Background [9]: 104
- AEB1 [10]: 0.361
- AEB2 [10]: 0.362
- Ave AEB [10]: 0.361
- Signal to Background [10]: 15.9
- AEB1 [11]: 0.031
- AEB2 [11]: 0.0329
- Ave AEB [11]: 0.0319
- Signal to Background [11]: 1.41
- AEB1 [12]: 0.0127
- AEB2 [12]: 0.0115
- Average AEB [12]: 0.0121
- Signal to Background [12]: 1.25

Substance: NB500-240 (Novus) (antibody)
- AEB1 [13]: 0.0089
- AEB2 [13]: 0.0108
- Ave AEB [13]: 0.0098
- Signal to Background [13]: 1.33
- AEB1 [14]: 0.004
- AEB2 [14]: 0.0047
- Ave AEB [14]: 0.0044
- Signal to Background [14]: 1.31
- AEB1 [15]: 0.0157
- AEB2 [15]: 0.0129
- Ave AEB [15]: 0.0143
- Signal to Background [15]: 4.29
- AEB1 [16]: 0.15
- AEB2 [16]: 0.14
- Ave AEB [16]: 0.145
- Signal to Background [16]: 19.5
- AEB1 [17]: 0.0026
- AEB2 [17]: 0.0025
- Ave AEB [17]: 0.0025
- Signal to Background [17]: 0.765
- AEB1 [18]: 0.009
- AEB2 [18]: 0.0091
- Ave AEB [18]: 0.009
- Signal to Background [18]: 1.21
- AEB1 [19]: 0.0086
- AEB2 [19]: 0.0101
- Ave AEB [19]: 0.0093
- Signal to Background [19]: 1.07
- AEB1 [20]: 0.0038
- AEB2 [20]: 0.0032
- Ave AEB [20]: 0.0035
- Signal to Background [20]: 1.05
- AEB1 [21]: 0.0065
- AEB2 [21]: 0.007
- Ave AEB [21]: 0.0068
- Signal to Background [21]: 0.908
- AEB1 [5]: 0.293
- AEB2 [5]: 0.288
- Ave AEB [5]: 0.291
- Signal to Background [5]: 140
- AEB1 [6]: 0.282
- AEB2 [6]: 0.309
- Ave AEB [6]: 0.296
- Signal to Background [6]: 142
- AEB1 [7]: 0.0038
- AEB2 [7]: 0.004
- Ave AEB [7]: 0.0039
- Signal to Background [7]: 1.88
- AEB1 [8]: 0.0085
- AEB2 [8]: 0.0124
- Ave AEB [8]: 0.0105
- Signal to Background [8]: 5.03
- AEB1 [9]: 0.132
- AEB2 [9]: 0.131
- Ave AEB [9]: 0.132
- Signal to Background [9]: 63.2
- AEB1 [10]: 0.0402
- AEB2 [10]: 0.0398
- Ave AEB [10]: 0.04
- Signal to Background [10]: 19.2
- AEB1 [11]: 0.0035
- AEB2 [11]: 0.0027
- Ave AEB [11]: 0.0031
- Signal to Background [11]: 1.49
